This note sets out measurements from patent publication US20260250352A1.

The target in assay [1] is recombinant mouse APRIL (mouse) (UniProt Q9D777).
Assay [2] deals with recombinant mouse BAFF (mouse) (UniProt Q9WU72).
The target of assay [3] is recombinant human BAFF (human) (UniProt Q9Y275). The assay is described as follows: cell-based or functional assay.
Assay [4] addresses recombinant human APRIL (human) (UniProt O75888). Description: cell-based or functional assay.
Assay [5] deals with recombinant human BAFF (human) (UniProt Q9Y275).
For assay [6], the target named is recombinant human APRIL (human) (UniProt O75888).
Assay [7] deals with recombinant human BAFF (human) (UniProt Q9Y275). The source holds these as a separate data set.
Assay [8] concerns the target single chain APRIL-BAFF-BAFF heterotrimer (ABB) (human) (UniProt O75888). The assay is described as follows: cell-based or functional assay.
Assay [9] has as its target single chain BAFF-APRIL-APRIL heterotrimer (BAA) (human) (UniProt Q9Y275). Description: cell-based or functional assay.
Assay [10] concerns the target recombinant human BAFF (human) (UniProt Q9Y275). Description: cell-based or functional assay. The source holds these as a separate data set.
Assay [11] addresses recombinant human APRIL (human) (UniProt O75888). Description: cell-based or functional assay. The source holds these as a separate data set.
For assay [12], the target named is recombinant mouse APRIL (mouse) (UniProt Q9D777). The assay is described as follows: cell-based or functional assay.
The target of assay [13] is single chain BAFF homotrimer (BAFF-BAFF-BAFF) (human) (UniProt Q9Y275). Description: cell-based or functional assay.
Assay [14] deals with BAFF 60-mer (human) (UniProt Q9Y275). The assay is described as follows: cell-based or functional assay.
Assay [15] addresses recombinant mouse BAFF (mouse) (UniProt Q9WU72). The assay is described as follows: cell-based or functional assay.
Assay [16] has as its target APRIL + BAFF in combination (human). The assay is described as follows: cell-based or functional assay.
The target in assay [17] is recombinant human BAFF (human) (UniProt Q9Y275). This is another data set of the same source.

Read-outs that look alike come from different tables or passages of the source.

Sequence of 13 TACI CRD2-Fc (Fc fusion) (chain): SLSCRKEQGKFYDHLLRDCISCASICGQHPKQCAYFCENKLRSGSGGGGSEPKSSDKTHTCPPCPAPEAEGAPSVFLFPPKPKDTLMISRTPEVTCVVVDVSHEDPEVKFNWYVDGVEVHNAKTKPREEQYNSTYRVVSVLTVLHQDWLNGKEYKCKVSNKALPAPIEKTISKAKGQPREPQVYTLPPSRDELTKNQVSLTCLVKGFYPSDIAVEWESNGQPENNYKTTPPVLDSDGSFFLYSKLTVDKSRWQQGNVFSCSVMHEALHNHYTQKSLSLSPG
Sequence of recombinant mouse APRIL (mouse) (Q9D777 96-241 limits assumed): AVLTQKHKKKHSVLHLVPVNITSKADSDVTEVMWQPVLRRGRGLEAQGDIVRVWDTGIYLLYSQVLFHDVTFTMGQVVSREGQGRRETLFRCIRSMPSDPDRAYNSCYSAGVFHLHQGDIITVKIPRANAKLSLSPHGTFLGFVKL
Sequence of recombinant mouse BAFF (mouse) (Q9WU72 127-309 limits assumed): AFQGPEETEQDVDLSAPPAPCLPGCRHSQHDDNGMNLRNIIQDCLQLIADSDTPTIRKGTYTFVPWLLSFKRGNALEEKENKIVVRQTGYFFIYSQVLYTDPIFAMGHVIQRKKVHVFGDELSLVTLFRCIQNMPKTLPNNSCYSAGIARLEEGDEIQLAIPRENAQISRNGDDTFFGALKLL

In the case of 13 TACI CRD2-Fc (Fc fusion), in assay [1], the IC50 (read off the curve), mouse APRIL, NF-κB luciferase reporter, Jurkat/NF-κB/TACI cells came out at 0.7 nM. The IC50 (read off the curve), mouse BAFF, NF-κB luciferase reporter, Jurkat/NF-κB/TACI cells in assay [2] came to 5 nM. In addition, the IC50, Jurkat/NF-kB/TACI reporter in assay [3] stood at 1.85 nM; in [4], 12.3 nM; in assay [10], 1330 nM; in [11], 369 nM. Also, the IC50 relative to WT TACI (68-110)-Fc (Δ WT) in assay [3] and in assay [4] was 1 each time. Further, the IC50 (read off the curve), human BAFF, NF-κB luciferase reporter, Jurkat/TACI/NF-κB cells in assay [5] worked out at 2 nM. Also, the IC50 (read off the curve), human APRIL, NF-κB luciferase reporter, Jurkat/TACI/NF-κB cells in [6] is 5 nM. For the same substance, the IC50 (read off the curve), human BAFF, NF-κB luciferase reporter, Jurkat/NF-κB/TACI cells in assay [7] came to 4 nM. The IC50, TACI/Jurkat/NF-kB reporter is 0.179 nM in assay [8]; less than 0.016 nM in assay [9]; 3 nM in [10]; 8.5 nM in assay [11]; 2.9 nM in assay [12]; 7.46 nM in assay [13]. Further, the IC50, TACI/Jurkat/NF-kB reporter in assay [14] is 18.7 nM; in [15] it was 2.2 nM; in assay [16], 12.9 nM. Also, the IC50 relative to TACI 30-110-Fc stood at 0.23 in assay [10] and 0.1 in assay [11]. In addition, the IC50 (read off the curve), human BAFF, NF-κB luciferase reporter, TACI/Jurkat/NF-κB cells in [17] was found to be 3 nM.
